FireProtDB (doi:10.1021/bi972395d)
Values joined by “and” are separate entries in the source; they are usually repeats but may differ in a detail not shown here. Equal entries are not always repeated.

B1: Superoxide dismutase [Mn], mitochondrial, P04179 (parent)
chain: MLSRAVCGTSRQLAPVLGYLGSRQKHSLPDLPYDYGALEPHINAQIMQLHHSKHHAAYVNNLNVTEEKYQEALAKGDVTAQIALQPALKFNGGGHINHSIFWTNLSPNGGGEPKGELLEAIKRDFGSFDKFKEKLTAASVGVQGSGWGWLGFNKERGHLQIAACPNQDPLQGTTGLIPLLGIDVWEHAYYLQYKNVRPDYLKAIWNVINWENVTERYMACKK

Variants of: B1
Settings: Homo sapiens; pH 7.8; 70 °C; Thermal; DSC; potassium phosphate 2 mM; transition: 2; reversible: Yes; structure 1N0J; whole UniProt chain shown

| Variant | ddG of mutation (higher = less stable) |
| --- | --- |
| Q167N | -2.79 kcal/mol |

Same assay, conditions: Homo sapiens; pH 7.8; 88.9 °C; Thermal; DSC; potassium phosphate 2 mM; transition: 2; reversible: Yes; structure 1N0J; whole UniProt chain shown

| Variant | ddG of mutation (higher = less stable) |
| --- | --- |
| Q167N | -0.06 kcal/mol |

Same assay, conditions: Homo sapiens; pH 7.8; Thermal; DSC; potassium phosphate 2 mM; transition: 2; reversible: Yes; structure 1N0J; whole UniProt chain shown

| Variant | unfolding enthalpy (calorimetric) |
| --- | --- |
| Q167N | 100 kcal/mol and 78.3 kcal/mol |
